We go through 167 variants from the RNAGym collection of RNA variant scans (doi:10.7554/elife.80360).

Sequences and labels used below:
B1: HDV Ribozyme (parent)
chain: GGCCGGCAUGGUCCCAGCCUCCUCGCUGGCGCCGGCUGGGCAACAUUCCGAGGGGACCGUCCCCUCGGUAAUGGCGAAUGGGACCCA

Variants of B1 are the subject of the data set. Description: self-cleavage, relative activity (ratio to wild type); higher = more cleavage; co-transcriptional.
Regarding C41G G82A, the self-cleavage amounted to 0.0811.

On to A42C C64G, for which the self-cleavage amounted to 0.277.

Take C41G G55C: the self-cleavage came to 0.723.

C41U C57G: the self-cleavage came to 1.09.

Turning to G40C A83C, the self-cleavage was 0.0755.

For A43C C57A, the self-cleavage amounted to 0.785.

For the variant A42G G73C, the self-cleavage is 0.

Take A42U A87G: the self-cleavage stood at 0.389.

On to A42C G55C, for which the self-cleavage turned out to be 0.243.

C41G A87G: the self-cleavage was 0.772.

For the variant A43C C44U, the self-cleavage was 0.923.

A43C C44G: the self-cleavage was 0.458.

Turning to C41A C57U, the self-cleavage turned out to be 0.909.

Turning to C41A A71C, the self-cleavage is 0.499.

Regarding G40C C48U, the self-cleavage worked out at 0.326.

For A42U C84G, the self-cleavage came out at 0.198.

Turning to C41G C63A, the self-cleavage amounted to 0.791.

A42G U69G: the self-cleavage amounted to 0.554.

Regarding A42G U69A, the self-cleavage worked out at 0.554.

As to A43G C49U, the self-cleavage was 0.469.

With A42G G52U, the self-cleavage amounted to 0.501.

On to C41U G55U, for which the self-cleavage worked out at 1.

Take G40C A78U: the self-cleavage came to 0.122.

Consider G40C A78G, for which the self-cleavage was 0.318.

For C41U G68C, the self-cleavage stood at 0.636.

Regarding C41U G68A, the self-cleavage is 0.743.

In the case of G40U G55U, the self-cleavage is 0.621.

As to G40C G81U, the self-cleavage worked out at 0.162.

For the variant C41G C66U, the self-cleavage was 0.683.

C41G A71G: the self-cleavage was determined as 0.554.

Consider C41U A83G, for which the self-cleavage was 0.712.

For the variant A43G A78G, the self-cleavage turned out to be 0.119.

Consider C41U C66G, for which the self-cleavage was found to be 0.926.

For A43G C75G, the self-cleavage turned out to be 0.161.

On to A43G C75A, for which the self-cleavage came to 0.172.

For A43G C75U, the self-cleavage came out at 0.0573.

As for G40C U72G, the self-cleavage stood at 0.158.

Take C41U C58U: the self-cleavage worked out at 1.17.

Consider G40C C41U, for which the self-cleavage was determined as 0.629.

Consider G40C C41G, for which the self-cleavage was 0.222.

For the variant A43G A70G, the self-cleavage amounted to 0.914.

For the variant G40U C44G, the self-cleavage came to 0.194.

As to A42G C48U, the self-cleavage was found to be 0.525.

As to A43C G50A, the self-cleavage stood at 0.469.

In the case of C41U G76U, the self-cleavage was determined as 0.897.

For the variant C41U G76C, the self-cleavage came out at 0.861.

Take A43G A83U: the self-cleavage is 0.266.

In the case of C41G A83C, the self-cleavage came out at 0.123.

Regarding C41U A70G, the self-cleavage stood at 0.876.

Turning to A42C U72C, the self-cleavage came out at 0.107.

Regarding C41U G54A, the self-cleavage worked out at 0.958.

On to G40C G74A, for which the self-cleavage is 0.0978.

As to C41A G74C, the self-cleavage amounted to 0.366.

In the case of A42C C44G, the self-cleavage turned out to be 0.217.

A43C G80C: the self-cleavage was 0.194.

On to A43C G80U, for which the self-cleavage was found to be 0.0825.

For the variant G40C C86U, the self-cleavage was determined as 0.372.

As for A42C G59C, the self-cleavage stood at 0.397.

With G40C A42C, the self-cleavage turned out to be 0.111.

Consider G40C A42U, for which the self-cleavage came out at 0.151.

As for C41U A51U, the self-cleavage stood at 0.932.

On to C41U A51C, for which the self-cleavage was 0.916.

A43G C66U: the self-cleavage is 0.672.

With A43G C66G, the self-cleavage came to 0.404.

As to A42G G80U, the self-cleavage is 0.095.

Consider G40U A43G, for which the self-cleavage amounted to 0.54.

Consider C41U C48U, for which the self-cleavage was 1.02.

As for A42U U60C, the self-cleavage came out at 0.554.

For the variant A43C A70C, the self-cleavage is 0.35.

C41U C63A: the self-cleavage turned out to be 0.983.

Consider A42G U46C, for which the self-cleavage worked out at 0.369.

As for C41G U72G, the self-cleavage worked out at 0.795.

For the variant G40A U69C, the self-cleavage turned out to be 0.876.

Consider G40A U69A, for which the self-cleavage worked out at 0.892.

On to G40A G53U, for which the self-cleavage came to 0.823.

With A43G C58U, the self-cleavage was 0.415.

In the case of C41U C49G, the self-cleavage was 0.317.

Take C41U C49A: the self-cleavage was 0.563.

C41A A77G: the self-cleavage stood at 0.628.

Turning to C41A A77U, the self-cleavage is 0.332.

Turning to C41A A77C, the self-cleavage turned out to be 0.172.

On to A42G A51G, for which the self-cleavage was 0.571.

For A42U C75A, the self-cleavage is 0.0405.

Turning to G40U C49U, the self-cleavage worked out at 0.817.

As to G40U C49A, the self-cleavage amounted to 0.787.

For G40C C61G, the self-cleavage was 0.241.

Regarding G40U A77U, the self-cleavage was found to be 0.212.

With G40U A77C, the self-cleavage is 0.145.

Take A42G G76A: the self-cleavage came to 0.631.

Turning to G40U U65A, the self-cleavage amounted to 0.808.

C41G G53A: the self-cleavage was 0.485.

Turning to G40C A56G, the self-cleavage came out at 0.237.

For G40C A56C, the self-cleavage was 0.197.

As to G40U C41A, the self-cleavage turned out to be 0.843.

For C41A U65G, the self-cleavage turned out to be 0.95.

On to A42C C58U, for which the self-cleavage was 0.322.

With A43C C58A, the self-cleavage came out at 0.394.

With G40U G54A, the self-cleavage amounted to 0.694.

As to G40A U46G, the self-cleavage came to 0.554.

Consider C41U C62U, for which the self-cleavage was determined as 0.92.

Take A42C C57A: the self-cleavage was 0.373.

For the variant C41G G73C, the self-cleavage came out at 0.877.

For the variant C41G G73A, the self-cleavage came out at 0.712.

Regarding C41G A56C, the self-cleavage came out at 0.942.

As for A42U C44G, the self-cleavage turned out to be 0.464.

In the case of G40U U69G, the self-cleavage was 0.727.

As to A43G A56U, the self-cleavage is 0.688.

On to A43G A56C, for which the self-cleavage turned out to be 0.587.

Turning to C41A G76C, the self-cleavage is 1.06.

For A43C A87U, the self-cleavage came out at 0.59.

Take A42U A77U: the self-cleavage was determined as 0.0739.

Consider A42U A77G, for which the self-cleavage worked out at 0.464.

In the case of A42U A43G, the self-cleavage was determined as 0.201.

On to C41A G55A, for which the self-cleavage was 0.937.

As to A42G G67U, the self-cleavage is 0.565.

As to A42G G59U, the self-cleavage was found to be 0.608.

With C41A G52U, the self-cleavage worked out at 0.772.

For the variant G40U A83U, the self-cleavage was 0.0936.

On to G40C C63G, for which the self-cleavage worked out at 0.138.

In the case of A42C G54A, the self-cleavage was found to be 0.271.

As to C41G A70C, the self-cleavage was found to be 0.475.

For the variant C41G A70G, the self-cleavage amounted to 0.929.

G40A U72A: the self-cleavage came to 0.446.

With C41G G54C, the self-cleavage was found to be 0.849.

C41U C61A: the self-cleavage is 1.12.

As for G40U G81C, the self-cleavage was found to be 0.149.

For G40A G81A, the self-cleavage came out at 0.475.

As to A43C C84A, the self-cleavage was 0.332.

Turning to A43C C84G, the self-cleavage came out at 0.237.

Consider G40C A71C, for which the self-cleavage came out at 0.121.

Turning to A42U G73A, the self-cleavage was 0.403.

Turning to A42U G76U, the self-cleavage was determined as 0.745.

On to G40C U65C, for which the self-cleavage amounted to 0.155.

Regarding G40C U47C, the self-cleavage was 0.243.

As to A43C G68U, the self-cleavage stood at 0.264.

For A42U C49U, the self-cleavage was determined as 0.502.

For the variant C41G C64G, the self-cleavage stood at 0.536.

Take A43C A77U: the self-cleavage was 0.

Turning to A43C A77C, the self-cleavage is 0.0923.

For C41A C61U, the self-cleavage amounted to 0.76.

Consider G40C A43U, for which the self-cleavage amounted to 0.0639.

A43G C85G: the self-cleavage was 0.791.

Take C41G G52U: the self-cleavage is 0.554.

For the variant C41G G52A, the self-cleavage turned out to be 0.562.

On to G40C C64U, for which the self-cleavage came to 0.223.

With G40U U79C, the self-cleavage was 0.185.

For the variant G40U U79G, the self-cleavage stood at 0.243.

As to G40U U47A, the self-cleavage is 0.427.

On to A42G C61U, for which the self-cleavage was found to be 0.656.

In the case of A42G C61G, the self-cleavage was determined as 0.831.

Turning to C41A G53U, the self-cleavage was 0.969.

For C41A G53C, the self-cleavage amounted to 0.848.

Turning to A43G A87C, the self-cleavage worked out at 0.688.

As to A43G A87G, the self-cleavage came to 0.634.

Take A42C U46C: the self-cleavage came out at 0.214.

Regarding A42C C62A, the self-cleavage came out at 0.365.

For the variant C41A G54A, the self-cleavage turned out to be 1.01.

Consider C41A G54C, for which the self-cleavage is 1.08.

As for A42C G76U, the self-cleavage turned out to be 0.734.

A43C G67C: the self-cleavage came out at 0.243.

Consider A42U G74C, for which the self-cleavage was determined as 0.17.

Regarding A42U G74A, the self-cleavage came out at 0.343.

With A42C A83G, the self-cleavage amounted to 0.129.

On to A42C A83U, for which the self-cleavage turned out to be 0.122.

C41G U46G: the self-cleavage stood at 0.231.

In the case of A42U U72A, the self-cleavage came to 0.511.

Regarding A42U U72C, the self-cleavage was determined as 0.508.
